Assay [1] concerns the target human TrkA expressed on HEK-293 cells (human) (UniProt P04629). The assay can be described thus: cell-based or functional assay.
Assay [2] has as its target human TrkC expressed on HEK-293 cells (human) (UniProt Q16288). The assay is described as follows: cell-based or functional assay.
Assay [3] has as its target human TrkB (full length), expressed on the surface of HEK-293 cells (human, UniProt Q16620 32-822). The assay can be described thus: cell-based or functional assay.
Assay [4] addresses T1, rhTrkB-EDC-Fc: recombinant protein that includes the extracellular domain of human TrkB fused to the Fc … (human, UniProt Q16620 32-430).
T1 construct: bought (R&D system, Cat. No. 688-TK); also called human TrkB (ELISA); not shown: Fc region of human IgG1
The assay is described as follows: competition ELISA: rhTrkB-EDC-Fc binding to coated BDNF. In general terms: ELISA stands for enzyme-linked immunosorbent assay.

For assay [5], the target named is T1, rhTrkB-EDC-Fc: recombinant protein that …. The assay is described as follows: ELISA on coated rhTrkB-EDC-Fc (ED50).

Four molecules from patent US20070059304A1 (Pfizer, published 2007) can be followed below.

Broadly, the IC50 is the point on the concentration scale where inhibition reaches its midpoint. Usually EC50 stands for the concentration needed to bring the measured effect to its halfway point.

T1 sequence (Q16620 32-430): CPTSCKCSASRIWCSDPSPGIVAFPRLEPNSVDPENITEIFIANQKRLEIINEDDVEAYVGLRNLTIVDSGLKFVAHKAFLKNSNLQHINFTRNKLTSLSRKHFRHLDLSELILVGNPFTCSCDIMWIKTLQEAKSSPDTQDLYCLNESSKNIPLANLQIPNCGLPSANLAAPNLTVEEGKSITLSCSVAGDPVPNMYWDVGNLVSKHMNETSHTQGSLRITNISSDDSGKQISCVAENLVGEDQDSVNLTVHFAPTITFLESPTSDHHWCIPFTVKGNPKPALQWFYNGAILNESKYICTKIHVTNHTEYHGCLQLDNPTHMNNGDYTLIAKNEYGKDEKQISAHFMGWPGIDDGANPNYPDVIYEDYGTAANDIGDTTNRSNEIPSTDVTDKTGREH
Sequence of human TrkB (full length), expressed on the surface of HEK-293 cells (Q16620 other isoform, or with tags, fused parts or gaps limits assumed): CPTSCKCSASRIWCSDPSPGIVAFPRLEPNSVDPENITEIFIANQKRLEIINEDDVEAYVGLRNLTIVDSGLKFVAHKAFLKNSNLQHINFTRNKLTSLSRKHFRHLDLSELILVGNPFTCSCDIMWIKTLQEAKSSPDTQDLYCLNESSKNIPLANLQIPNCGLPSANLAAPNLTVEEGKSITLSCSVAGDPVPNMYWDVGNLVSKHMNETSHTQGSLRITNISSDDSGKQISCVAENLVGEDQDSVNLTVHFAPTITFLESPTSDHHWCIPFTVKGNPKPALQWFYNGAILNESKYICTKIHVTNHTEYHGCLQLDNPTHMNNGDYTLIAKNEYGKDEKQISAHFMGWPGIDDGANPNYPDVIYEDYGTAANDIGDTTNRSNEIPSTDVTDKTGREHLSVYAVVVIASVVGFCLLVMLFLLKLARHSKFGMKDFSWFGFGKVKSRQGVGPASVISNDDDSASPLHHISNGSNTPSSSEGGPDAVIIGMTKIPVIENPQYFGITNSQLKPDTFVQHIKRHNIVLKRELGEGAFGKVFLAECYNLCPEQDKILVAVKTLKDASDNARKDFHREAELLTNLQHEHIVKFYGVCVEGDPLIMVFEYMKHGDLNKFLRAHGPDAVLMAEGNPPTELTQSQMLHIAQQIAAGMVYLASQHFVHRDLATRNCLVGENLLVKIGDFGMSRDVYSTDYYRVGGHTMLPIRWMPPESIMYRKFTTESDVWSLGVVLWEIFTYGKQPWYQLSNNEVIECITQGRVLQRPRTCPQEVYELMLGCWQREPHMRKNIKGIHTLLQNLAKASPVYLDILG
Sequence of human TrkC expressed on HEK-293 cells (human) (Q16288 32-839 S70N limits assumed): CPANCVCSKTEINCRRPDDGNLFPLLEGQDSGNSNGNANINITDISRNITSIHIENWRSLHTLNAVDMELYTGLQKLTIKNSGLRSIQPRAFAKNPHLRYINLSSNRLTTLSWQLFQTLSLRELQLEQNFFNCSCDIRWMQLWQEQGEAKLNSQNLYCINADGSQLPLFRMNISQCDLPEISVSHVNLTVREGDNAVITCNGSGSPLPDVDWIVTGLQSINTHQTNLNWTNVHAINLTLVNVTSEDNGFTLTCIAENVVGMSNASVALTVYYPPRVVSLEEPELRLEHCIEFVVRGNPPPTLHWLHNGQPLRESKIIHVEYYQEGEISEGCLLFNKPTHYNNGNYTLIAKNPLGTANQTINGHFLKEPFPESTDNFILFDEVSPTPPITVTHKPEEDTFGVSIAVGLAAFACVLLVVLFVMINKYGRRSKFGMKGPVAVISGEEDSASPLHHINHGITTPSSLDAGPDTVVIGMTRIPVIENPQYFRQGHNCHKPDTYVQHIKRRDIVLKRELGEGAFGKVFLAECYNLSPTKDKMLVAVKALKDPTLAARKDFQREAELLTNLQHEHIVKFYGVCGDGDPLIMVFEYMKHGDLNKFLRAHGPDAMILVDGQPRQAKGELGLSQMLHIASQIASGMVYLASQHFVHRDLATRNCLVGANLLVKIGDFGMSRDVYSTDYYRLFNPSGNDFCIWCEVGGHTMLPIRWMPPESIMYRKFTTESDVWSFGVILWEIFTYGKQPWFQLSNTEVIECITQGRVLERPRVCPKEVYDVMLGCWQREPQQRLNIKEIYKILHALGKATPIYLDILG
Sequence of human TrkA expressed on HEK-293 cells (human) (P04629 33-796 limits assumed): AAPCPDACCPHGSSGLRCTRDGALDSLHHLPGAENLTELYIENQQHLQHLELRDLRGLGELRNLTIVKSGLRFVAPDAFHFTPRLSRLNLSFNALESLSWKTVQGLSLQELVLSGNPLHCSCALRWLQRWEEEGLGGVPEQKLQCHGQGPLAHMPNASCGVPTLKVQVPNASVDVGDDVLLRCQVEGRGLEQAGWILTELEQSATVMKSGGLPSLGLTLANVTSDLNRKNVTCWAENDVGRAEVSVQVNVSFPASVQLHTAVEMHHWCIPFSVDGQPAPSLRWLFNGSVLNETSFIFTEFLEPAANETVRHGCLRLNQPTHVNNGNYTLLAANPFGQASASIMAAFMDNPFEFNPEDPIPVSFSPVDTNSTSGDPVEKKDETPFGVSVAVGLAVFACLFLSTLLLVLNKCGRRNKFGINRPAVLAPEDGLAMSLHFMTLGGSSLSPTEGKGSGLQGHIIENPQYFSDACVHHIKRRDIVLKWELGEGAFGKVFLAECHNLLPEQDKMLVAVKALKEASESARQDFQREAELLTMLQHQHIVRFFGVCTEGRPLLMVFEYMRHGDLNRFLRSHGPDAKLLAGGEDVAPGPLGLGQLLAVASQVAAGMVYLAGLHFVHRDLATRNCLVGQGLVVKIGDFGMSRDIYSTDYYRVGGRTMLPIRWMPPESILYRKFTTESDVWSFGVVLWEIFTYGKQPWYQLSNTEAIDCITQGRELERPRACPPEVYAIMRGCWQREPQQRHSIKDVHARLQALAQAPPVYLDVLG

For NGF (ligand), the TrkA luciferase assay: signal at 300 ng/ml NGF (fold over basal) in assay [1] was 6.
Turning to NT-3 (ligand), the TrkC luciferase assay: signal at 300 ng/ml NT-3 (fold over basal) in assay [2] was determined as 6.

B1: BDNF (ligand, UniProt P23560 129-247, looked up)
chain: HSDPARRGELSVCDSISEWVTAADKKTAVDMSGGTVTVLEKVPVSKGQLKQYFYETKCNPMGYTKEGCRGIDKRHWNSQCRTTQSYVRALTMDSKKRIGWRFIRIDTSCVCTLTIKRGR
Consider B1, for which the “luciferase assay, HEK-293 cells expressing rhTrkB: signal at 200 ng/ml BDNF” value in assay [3] was determined as 6.2 fold over basal.

B2: 4C7 (antibody)
chain 1: QVQLVQSGAEVKKPGASVKVSCKASGYTFTNYVILWVRQAPGQGLEWMGYINPYNDGTKYNEKFKGRVTMTRDTSTSTVYMELSSLRSEDTAVYYCARLLKYRRFSYYAIDYWGQGTTVTVSS
chain 2: DIQMTQSPSSLSASVGDRVTITCRASENVYSNLAWYQQKPGKAPKLLIYAASNLQSGVPSRFSGSGSGTDFTFTISSLQPEDIATYYCQHFWGSPFTFGQGTKLEIK
With B2, the IC50 in assay [4] is 0.3 nM. In assay [5], the EC50 worked out at 0.017 nM. Moreover, the “luciferase assay, HEK-293 cells expressing rhTrkB: EC50” value in assay [3] was ~0.1 nM.
